Source: US20020193327A1

Molecular target: protein receptor on Chang C cells (human)
Test: 125I-labeled virions on Chang C cells pretreated with 10 µg/ml trypsin, subtilisin, proteinase K or bromelain

Question: For “Wild-type Ad37 (adenovirus type 37) particles”, which percent inhibition of specific binding after protease pretreatment of the cells is on record?
Answer: The percent inhibition of specific binding after protease pretreatment of the cells was 50%.
